# According to article PMC11782487, “Cryo-EM structures reveal the H^+/citrate symport mechanism of Drosophila INDY” (Life Science Alliance, 2025):
# Target: the molecule itself
# Assay: cryo-EM structure; purified INDY in MSP1 nanodiscs (E. coli polar lipids); apo at pH 6 and pH 8, with 5 mM citrate, or with 150 uM DIDS; homodimer in all seven structures
protein,measurement,value
"Drosophila I'm Not Dead Yet (INDY) (natural protein, I'm Not Dead Yet (INDY), Drosophila melanogaster, full-length gene, GenBank AF509505.1; 590 amino acids; Eluted from the anti-GFP resin by overnight thrombin cleavage; residues of the thrombin site may be left at the C-terminus; Regions of poor density were modelled as polyalanine in the deposited structures; also called WT INDY; apo INDY; not shown: eGFP, C-terminal, cleaved; His10, C-terminal, …) not shown",stoichiometry N,2
